Test results published in publication PMC11436768 (Nature Communications, 2024).

Columns and labels:
[1] = target: E1o (S. scrofa full-length E1o, GST tag cut off) (S. scrofa); experiment: SPR
[2] = target: the molecule itself; experiment: cryo-electron tomography with subtomogram averaging

Molecule	Kd [1] [µM]	binding result [2]
E3 (S. scrofa full-length E3, GST tag cut off) (from UniProt P09623 36-509) (natural protein)	1.84	–
E3 subunit (dihydrolipoyl dehydrogenase) of native 2-oxoglutarate dehydrogenase complex from Sus scrofa heart (natural protein) ADQPIDADVTVIGSGPGGYVAAIKAAQLGFKTVCIEKNETLGGTCLNVGCIPSKALLNNSHYYHMAHGKDFASRGIEMSEVRLNLEKMMEQKSNAVKALTGGIAHLFKQNKVVRVNGYGKITGKNQVTATKADGSTEVINTKNILIATGSEVTPFPGITIDEDTVVSSTGALSLKKVPEKMVVIGAGVIGVELGSVWQRLGADVTAVELLGHVGGIGIDMEVSKNFQRILQKQGFKFKLNTKVIGATKKSDGNIDVSIEAASGGKAEVITCDVLLVCIGRRPFTQNLGLEELGIELDPRGRIPVNTRFQTKIPNIYAIGDVVAGPMLAHKAEDEGIICVEGMAGGAVHIDYNCVPSVIYTHPEVAWVGKSEEQLKEEGIEYKVGKFPFAANSRAKTNADTDGMVKILGQKSTDRVLGAHIIGPGAGEMINEAALALEYGASCEDIARVCHAHPTLSEAFREANLAASFGKAINF	–	binds
